From article PMC9392717

System: His/Xpress-Gemin5 (pcDNA3Xpress-Gemin5)
Experiment: pull-down (UV-irradiated HEK293 cells, Ni-NTA, RT-qPCR)
Settings: EMSA: RNA folded in 100 mM HEPES pH 8.0, 100 mM NaCl, 5.25 mM MgCl2, 37 C; binding in 40 mM Tris-HCl pH 7.5, 250 mM NaCl, 0.1% (w/v) bME, 15 min, room …

L32-WT-luc mRNA (5'TOP)
binding signal (fold vs L32-CM6): 5
